Results published in PMC2572221.

Tests used:
[1] = biological target: rat C3b (rat)
[2] = biological target: rat C3b (rat); assay: SPR; Biacore 3000; rat C3b (1000RU) covalently coupled to the chip through its internal thioester after deposition by a convertase on a nidus of human C3b (50RU); different concentrations of the sCrry proteins flowed over; KD from steady state analysis

rCrry-Ig (Fc fusion) gave an IH50 of inhibition of AP-mediated haemolysis of guinea pig erythrocytes by rat serum, in terms of Crry molarity [1] of 168 nM.

Substance “soluble recombinant form of rat Crry containing the four N-terminal SCRs (domain or fragment)” has a Kd [2] of 5.1 µM.
